Usually Km stands for the concentration of substrate that gives half-maximal velocity.

Substrate in this data set: CCCCCCCCCCCCCC(=O)SCCNC(=O)CCNC(=O)[C@H](O)C(C)(C)COP(=O)(O)OP(=O)(O)OC[C@H]1O[C@@H](n2cnc3c(N)ncnc32)[C@H](O)[C@@H]1OP(=O)(O)O
Kind of data set: purified protein. To be noted: fatty acyl-CoA binding site.

B1: N-Myristoyltransferase (LdNMT) (Leishmania donovani) (protein)
chain: MSRNPSNSDAAHAFWSTQPVPQTEDETEKIVFAGPMDEPKTVADIPEEPYPIASTFEWWTPNMEAADDIHAIYELLRDNYVEDDDSMFRFNYSEEFLQWALCPPSYIPDWHVAVRRKADKKLLAFIAGVPVTLRMGTPKYMKVKAQEKGQEEEAAKYDAPRHICEINFLCVHKQLREKRLAPILIKEVTRRVNRTNVWQAVYTAGVLLPTPYASGQYFHRSLNPEKLVEIRFSGIPAQYQKFQNPMAMLKRNYQLPNAPKNSGLREMKPSDVPQVRRILMNYLDNFDVGPVFSDAEISHYLLPRDGVVFTYVVENDKKVTDFFSFYRIPSTVIGNSNYNILNAAYVHYYAATSMPLHQLILDLLIVAHSRGFDVCNMVEILDNRSFVEQLKFGAGDGHLRYYFYNWAYPKIKPSQVALVML
Turning to B1, the Km came out at 0.0175 ± 0.0029 µM.

For the origin of these results see paper PMC2829124.
